From EP1198239B1 (Cancer Research Ventures Limited, dated 2007) come the findings set out here.

Assay [1] deals with Kid (Escherichia coli plasmid R1) (UniProt P13976). Nature of the assay: cell-based or functional assay.
The target of the next assay is T1, Kid (Escherichia coli plasmid R1, UniProt P13976 24-133).
T1 construct: expressed from p424Met25Kid in yeast and from pNATHA2 in HeLa cells; also called ParD kid toxin; killing determinant
T1 sequence (looked up): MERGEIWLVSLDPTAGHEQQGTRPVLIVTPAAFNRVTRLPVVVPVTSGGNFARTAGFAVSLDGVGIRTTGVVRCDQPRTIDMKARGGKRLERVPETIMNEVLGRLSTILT
Nature of the assay: co-retention of untagged Kid with HisKis on Ni2+-activated chelating sepharose; Kid released only by denaturation (eluted at 5.5 M guanidinium chloride).

A value given as a limit tells only on which side of the number the result lay.

Turning to Kis (from UniProt P13975 1-85), in assay [1], the dead cells (trypan blue), all other samples (incl. kis+/kid+ HeLa cells without Doxycyclin, Kis expressed) is under 9%; the dead cells (trypan blue), kis+/kid+ HeLa cells in presence of Doxycyclin, day five was 32%; the dead cells (trypan blue), kis+/kid+ HeLa cells in presence of Doxycyclin, day ten is 65%.

B1: HisKis (other, Escherichia coli plasmid R1, UniProt P13975 1-85, looked up)
chain: MHTTRLKRVGGSVMLTVPPALLNALSLGTDNEVGMVIDNGRLIVEPYRRPQYSLAELLAQCDPNAEISAEEREWLDAPATGQEEI
notes: Co-expressed with Kid from pRG-HisKisKid in E. coli C600 or TG1; also called His-tagged Kis; ParD kis antitoxin with N-terminal His tag; not shown: N-terminal His tag and linker from vector pET15b, subcloned into pRG-recA-NHis
Turning to B1, the binding result with Kid is given as “binds”.
